From publication PMC10232437 (Scientific Reports, 2023)

Target: the molecule itself
Assay: non-reducing SDS-PAGE with western blot; insoluble fraction (final pellet after Triton X-100 extraction) of SN tissue from control, MPTP/probenecid and NSA-treated mice, resuspended by sonication in 2% SDS lysis buffer, loaded with non-reducing sample buffer; anti-MLKL blot

B1: mixed lineage kinase domain-like protein (natural protein, UniProt Q9D2Y4 1-472, looked up)
chain: MDKLGQIIKLGQLIYEQCEKMKYCRKQCQRLGNRVHGLLQPLQRLQAQGKKNLPDDITAALGRFDEVLKEANQQIEKFSKKSHIWKFVSVGNDKILFHEVNEKLRDVWEELLLLLQVYHWNTVSDVSQPASWQQEDRQDAEEDGNENMKVILMQLQISVEEINKTLKQCSLKPTQEIPQDLQIKEIPKEHLGPPWTKLKTSKMSTIYRGEYHRSPVTIKVFNNPQAESVGIVRFTFNDEIKTMKKFDSPNILRIFGICIDQTVKPPEFSIVMEYCELGTLRELLDREKDLTMSVRSLLVLRAARGLYRLHHSETLHRNISSSSFLVAGGYQVKLAGFELSKTQNSISRTAKSTKAERSSSTIYVSPERLKNPFCLYDIKAEIYSFGIVLWEIATGKIPFEGCDSKKIRELVAEDKKQEPVGQDCPELLREIINECRAHEPSQRPSVDGRSLSGRERILERLSAVEESTDKKV
notes: mixed lineage kinase domain-like protein (MLKL), mouse, endogenous in the substantia nigra of C57BL/6 mice; Seen as a tetramer band in the insoluble fraction (non-reducing sample buffer) and as an oligomer on an A11 blot; also called MLKL; source: endogenous, mouse substantia nigra tissue lysate
For B1, the “stoichiometry N” value was 4.
